Laboratory results: patent publication US20200087347 (published 2020)
[ ]: non-standard residue; d: D form. NMeK = CN[C@@H](CCCCN)C(=O)O; BDPFL = dye

Key:
Assay in all cases: competition
integrin αvβ8 = molecular target: T1, integrin αvβ8 (human, UniProt P06756)
T1 chain 1: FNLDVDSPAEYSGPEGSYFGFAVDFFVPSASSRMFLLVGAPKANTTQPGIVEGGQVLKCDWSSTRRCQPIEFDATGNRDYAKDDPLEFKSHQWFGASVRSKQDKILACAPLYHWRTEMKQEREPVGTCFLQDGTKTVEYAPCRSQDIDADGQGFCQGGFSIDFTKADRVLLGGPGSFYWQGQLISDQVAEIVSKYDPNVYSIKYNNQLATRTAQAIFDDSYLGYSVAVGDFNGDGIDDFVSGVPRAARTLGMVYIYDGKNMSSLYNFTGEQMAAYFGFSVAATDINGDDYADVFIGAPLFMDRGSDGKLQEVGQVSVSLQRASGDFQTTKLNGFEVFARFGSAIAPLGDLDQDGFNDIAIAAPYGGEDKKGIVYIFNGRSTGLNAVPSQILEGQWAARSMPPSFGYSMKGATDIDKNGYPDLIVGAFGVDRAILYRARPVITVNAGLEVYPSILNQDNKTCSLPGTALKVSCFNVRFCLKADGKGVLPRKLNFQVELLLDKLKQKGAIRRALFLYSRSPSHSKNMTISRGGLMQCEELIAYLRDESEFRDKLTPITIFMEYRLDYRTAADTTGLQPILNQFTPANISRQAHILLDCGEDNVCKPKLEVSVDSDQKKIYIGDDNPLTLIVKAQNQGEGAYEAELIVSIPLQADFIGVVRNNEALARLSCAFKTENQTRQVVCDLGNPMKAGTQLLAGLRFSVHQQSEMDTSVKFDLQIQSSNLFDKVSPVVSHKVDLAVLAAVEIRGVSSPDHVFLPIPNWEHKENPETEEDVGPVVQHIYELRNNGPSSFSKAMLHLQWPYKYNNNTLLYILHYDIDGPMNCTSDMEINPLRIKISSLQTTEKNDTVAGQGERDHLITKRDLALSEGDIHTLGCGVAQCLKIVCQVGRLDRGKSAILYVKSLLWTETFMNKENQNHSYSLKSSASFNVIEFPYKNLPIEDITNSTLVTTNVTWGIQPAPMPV
T1 chain 2: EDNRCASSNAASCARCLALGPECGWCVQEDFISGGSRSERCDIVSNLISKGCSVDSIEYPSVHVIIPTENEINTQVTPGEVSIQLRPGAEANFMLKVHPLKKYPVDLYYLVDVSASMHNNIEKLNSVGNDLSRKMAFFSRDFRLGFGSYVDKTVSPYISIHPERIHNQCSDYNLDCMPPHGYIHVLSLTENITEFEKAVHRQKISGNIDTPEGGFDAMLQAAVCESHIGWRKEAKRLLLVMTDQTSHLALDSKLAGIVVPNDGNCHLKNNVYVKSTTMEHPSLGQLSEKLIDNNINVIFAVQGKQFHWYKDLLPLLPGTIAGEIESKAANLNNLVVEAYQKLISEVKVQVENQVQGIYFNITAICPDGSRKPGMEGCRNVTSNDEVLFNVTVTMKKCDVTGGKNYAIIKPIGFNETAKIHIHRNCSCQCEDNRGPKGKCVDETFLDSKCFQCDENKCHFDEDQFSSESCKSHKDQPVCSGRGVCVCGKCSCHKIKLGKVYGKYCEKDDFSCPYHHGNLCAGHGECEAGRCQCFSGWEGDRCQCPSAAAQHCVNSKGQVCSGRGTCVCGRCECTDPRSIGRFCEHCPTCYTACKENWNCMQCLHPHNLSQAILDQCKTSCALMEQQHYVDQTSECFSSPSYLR

integrin αvβ6 = molecular target: T2, integrin αvβ6 (human, UniProt P06756)
T2 chain 1: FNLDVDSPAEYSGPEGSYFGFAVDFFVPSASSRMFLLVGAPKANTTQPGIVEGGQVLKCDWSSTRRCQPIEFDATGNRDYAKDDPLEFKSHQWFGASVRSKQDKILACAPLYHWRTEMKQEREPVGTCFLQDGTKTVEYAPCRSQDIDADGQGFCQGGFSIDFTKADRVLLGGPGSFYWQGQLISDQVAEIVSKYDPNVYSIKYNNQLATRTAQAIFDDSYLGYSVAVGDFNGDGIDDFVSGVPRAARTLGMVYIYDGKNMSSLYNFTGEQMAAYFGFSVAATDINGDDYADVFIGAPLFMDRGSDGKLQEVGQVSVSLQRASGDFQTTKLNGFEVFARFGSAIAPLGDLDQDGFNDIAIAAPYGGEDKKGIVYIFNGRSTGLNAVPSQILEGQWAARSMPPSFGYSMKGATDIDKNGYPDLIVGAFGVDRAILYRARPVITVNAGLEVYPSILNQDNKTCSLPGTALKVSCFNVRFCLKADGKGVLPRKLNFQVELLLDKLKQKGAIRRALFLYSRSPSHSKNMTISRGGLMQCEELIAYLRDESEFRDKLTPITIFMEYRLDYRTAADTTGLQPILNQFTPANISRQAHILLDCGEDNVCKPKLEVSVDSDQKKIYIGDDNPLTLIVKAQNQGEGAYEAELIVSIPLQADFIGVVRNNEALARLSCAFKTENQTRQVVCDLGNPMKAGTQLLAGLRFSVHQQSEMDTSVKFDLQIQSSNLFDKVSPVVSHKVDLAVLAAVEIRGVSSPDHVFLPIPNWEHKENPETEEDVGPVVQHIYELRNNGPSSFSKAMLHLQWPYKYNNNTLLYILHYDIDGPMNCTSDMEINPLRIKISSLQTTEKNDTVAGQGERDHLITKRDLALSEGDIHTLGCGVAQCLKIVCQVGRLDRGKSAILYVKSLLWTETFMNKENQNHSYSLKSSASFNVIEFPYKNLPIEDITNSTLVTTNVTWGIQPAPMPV
T2 chain 2: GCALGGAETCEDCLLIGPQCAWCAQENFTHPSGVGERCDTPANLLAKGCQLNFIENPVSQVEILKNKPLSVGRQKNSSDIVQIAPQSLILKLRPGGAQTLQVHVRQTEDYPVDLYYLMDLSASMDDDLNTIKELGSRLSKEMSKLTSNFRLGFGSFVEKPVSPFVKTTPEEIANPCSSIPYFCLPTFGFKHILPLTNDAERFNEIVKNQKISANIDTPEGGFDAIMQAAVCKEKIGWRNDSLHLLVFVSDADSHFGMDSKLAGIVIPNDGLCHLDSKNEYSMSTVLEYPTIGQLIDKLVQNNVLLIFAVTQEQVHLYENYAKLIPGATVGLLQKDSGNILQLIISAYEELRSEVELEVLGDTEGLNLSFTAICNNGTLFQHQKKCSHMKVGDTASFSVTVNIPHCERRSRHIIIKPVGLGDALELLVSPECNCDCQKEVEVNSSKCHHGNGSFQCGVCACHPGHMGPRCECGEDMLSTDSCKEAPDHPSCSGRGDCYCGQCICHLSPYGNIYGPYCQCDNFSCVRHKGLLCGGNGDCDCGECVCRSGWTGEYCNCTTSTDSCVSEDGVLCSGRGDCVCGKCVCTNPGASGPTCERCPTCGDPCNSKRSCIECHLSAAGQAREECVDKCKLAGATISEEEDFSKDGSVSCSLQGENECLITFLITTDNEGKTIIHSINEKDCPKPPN

integrin αvβ5 = molecular target: T3, integrin αvβ5 (human, UniProt P06756)
T3 chain 1: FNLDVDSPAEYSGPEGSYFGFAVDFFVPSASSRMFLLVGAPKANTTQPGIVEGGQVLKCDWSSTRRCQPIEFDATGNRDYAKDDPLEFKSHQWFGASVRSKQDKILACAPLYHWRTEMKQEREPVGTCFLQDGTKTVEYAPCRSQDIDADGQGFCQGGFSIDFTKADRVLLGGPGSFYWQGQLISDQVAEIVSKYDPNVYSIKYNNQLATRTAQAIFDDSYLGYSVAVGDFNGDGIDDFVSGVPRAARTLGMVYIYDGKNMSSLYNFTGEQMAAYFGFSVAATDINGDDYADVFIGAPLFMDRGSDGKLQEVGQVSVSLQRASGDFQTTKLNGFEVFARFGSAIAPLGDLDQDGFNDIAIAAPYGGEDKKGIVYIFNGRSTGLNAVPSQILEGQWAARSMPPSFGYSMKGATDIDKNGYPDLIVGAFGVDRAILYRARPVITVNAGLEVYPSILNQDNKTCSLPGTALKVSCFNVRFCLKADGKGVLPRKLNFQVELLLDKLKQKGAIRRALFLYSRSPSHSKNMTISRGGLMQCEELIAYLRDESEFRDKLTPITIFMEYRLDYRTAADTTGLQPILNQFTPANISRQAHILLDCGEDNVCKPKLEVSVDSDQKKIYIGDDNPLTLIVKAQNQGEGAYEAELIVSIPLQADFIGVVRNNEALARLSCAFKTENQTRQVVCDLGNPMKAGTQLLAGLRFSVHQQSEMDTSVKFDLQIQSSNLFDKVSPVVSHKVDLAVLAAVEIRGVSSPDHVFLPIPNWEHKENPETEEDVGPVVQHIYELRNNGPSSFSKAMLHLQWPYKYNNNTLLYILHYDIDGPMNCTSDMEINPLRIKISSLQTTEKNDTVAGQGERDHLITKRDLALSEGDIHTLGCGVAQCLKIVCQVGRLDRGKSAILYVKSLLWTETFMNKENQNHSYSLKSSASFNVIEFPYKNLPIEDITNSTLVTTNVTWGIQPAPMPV
T3 chain 2: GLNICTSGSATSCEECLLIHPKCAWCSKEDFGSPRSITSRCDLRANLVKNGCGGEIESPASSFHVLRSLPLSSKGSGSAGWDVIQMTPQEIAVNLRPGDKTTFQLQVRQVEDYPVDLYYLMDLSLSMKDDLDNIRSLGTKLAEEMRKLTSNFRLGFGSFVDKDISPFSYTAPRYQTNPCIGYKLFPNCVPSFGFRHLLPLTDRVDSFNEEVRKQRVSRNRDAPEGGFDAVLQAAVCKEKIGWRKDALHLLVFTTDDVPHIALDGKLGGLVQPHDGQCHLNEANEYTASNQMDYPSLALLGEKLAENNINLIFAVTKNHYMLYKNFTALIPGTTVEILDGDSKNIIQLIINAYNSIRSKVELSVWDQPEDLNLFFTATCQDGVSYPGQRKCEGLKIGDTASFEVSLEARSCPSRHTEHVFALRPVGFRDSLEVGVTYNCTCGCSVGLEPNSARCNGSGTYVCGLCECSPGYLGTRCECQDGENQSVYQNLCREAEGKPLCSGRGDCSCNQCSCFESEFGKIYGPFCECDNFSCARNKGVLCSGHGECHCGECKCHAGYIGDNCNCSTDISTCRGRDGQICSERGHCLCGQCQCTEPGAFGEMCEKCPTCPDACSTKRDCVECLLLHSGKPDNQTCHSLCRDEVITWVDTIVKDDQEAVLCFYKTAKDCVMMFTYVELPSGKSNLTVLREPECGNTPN

integrin α5β1 = integrin α5β1 (human, UniProt P08648)
integrin α5β1, sequence (P08648 42-1049, chain 1 of 2): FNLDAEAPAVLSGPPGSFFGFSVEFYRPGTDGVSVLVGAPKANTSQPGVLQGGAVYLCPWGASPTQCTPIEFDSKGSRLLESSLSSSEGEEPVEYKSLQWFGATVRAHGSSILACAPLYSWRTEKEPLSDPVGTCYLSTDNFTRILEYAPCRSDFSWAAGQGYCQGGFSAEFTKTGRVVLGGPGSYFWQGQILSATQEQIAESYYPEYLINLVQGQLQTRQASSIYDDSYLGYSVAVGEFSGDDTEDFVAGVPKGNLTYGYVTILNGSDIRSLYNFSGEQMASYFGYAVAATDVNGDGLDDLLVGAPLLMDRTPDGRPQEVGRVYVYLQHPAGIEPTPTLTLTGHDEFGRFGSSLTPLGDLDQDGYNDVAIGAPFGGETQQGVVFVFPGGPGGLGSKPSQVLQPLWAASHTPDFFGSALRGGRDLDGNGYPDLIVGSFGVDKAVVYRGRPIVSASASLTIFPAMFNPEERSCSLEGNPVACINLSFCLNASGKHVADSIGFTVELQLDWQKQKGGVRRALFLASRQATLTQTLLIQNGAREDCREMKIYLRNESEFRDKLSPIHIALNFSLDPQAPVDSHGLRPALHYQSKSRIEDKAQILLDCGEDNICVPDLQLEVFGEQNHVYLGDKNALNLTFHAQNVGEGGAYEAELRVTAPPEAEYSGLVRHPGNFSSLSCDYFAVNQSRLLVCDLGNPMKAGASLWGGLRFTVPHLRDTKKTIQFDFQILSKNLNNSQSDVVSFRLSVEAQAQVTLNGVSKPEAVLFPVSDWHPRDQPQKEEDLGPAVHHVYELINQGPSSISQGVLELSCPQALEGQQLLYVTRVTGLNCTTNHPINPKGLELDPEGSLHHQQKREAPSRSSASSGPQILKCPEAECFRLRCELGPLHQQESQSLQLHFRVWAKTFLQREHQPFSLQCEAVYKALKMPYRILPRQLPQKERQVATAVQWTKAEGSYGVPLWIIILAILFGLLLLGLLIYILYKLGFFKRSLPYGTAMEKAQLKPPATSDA
integrin α5β1, sequence (chain, as listed by the source, chain 2 of 2): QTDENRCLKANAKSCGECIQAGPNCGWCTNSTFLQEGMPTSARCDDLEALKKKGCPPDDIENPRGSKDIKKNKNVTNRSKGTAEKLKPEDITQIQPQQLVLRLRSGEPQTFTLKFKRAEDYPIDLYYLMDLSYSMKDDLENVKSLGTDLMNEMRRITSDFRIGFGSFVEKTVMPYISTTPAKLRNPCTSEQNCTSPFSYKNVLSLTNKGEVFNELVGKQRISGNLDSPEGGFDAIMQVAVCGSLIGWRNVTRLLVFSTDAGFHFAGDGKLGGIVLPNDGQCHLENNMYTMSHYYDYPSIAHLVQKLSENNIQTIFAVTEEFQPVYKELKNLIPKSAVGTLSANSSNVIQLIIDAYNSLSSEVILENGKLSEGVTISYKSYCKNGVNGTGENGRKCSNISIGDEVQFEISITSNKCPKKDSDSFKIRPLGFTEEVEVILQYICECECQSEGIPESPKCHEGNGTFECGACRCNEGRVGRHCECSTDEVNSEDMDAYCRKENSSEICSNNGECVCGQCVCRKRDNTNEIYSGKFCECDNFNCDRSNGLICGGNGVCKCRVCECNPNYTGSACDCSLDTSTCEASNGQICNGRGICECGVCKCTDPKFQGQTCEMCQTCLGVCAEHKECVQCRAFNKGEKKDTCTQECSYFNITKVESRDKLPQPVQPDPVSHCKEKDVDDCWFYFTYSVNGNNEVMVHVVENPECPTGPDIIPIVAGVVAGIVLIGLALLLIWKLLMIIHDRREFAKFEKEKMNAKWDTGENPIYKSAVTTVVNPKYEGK

integrin αvβ3 = molecular target: T4, integrin αvβ3 (human, UniProt P06756)
T4 chain 1: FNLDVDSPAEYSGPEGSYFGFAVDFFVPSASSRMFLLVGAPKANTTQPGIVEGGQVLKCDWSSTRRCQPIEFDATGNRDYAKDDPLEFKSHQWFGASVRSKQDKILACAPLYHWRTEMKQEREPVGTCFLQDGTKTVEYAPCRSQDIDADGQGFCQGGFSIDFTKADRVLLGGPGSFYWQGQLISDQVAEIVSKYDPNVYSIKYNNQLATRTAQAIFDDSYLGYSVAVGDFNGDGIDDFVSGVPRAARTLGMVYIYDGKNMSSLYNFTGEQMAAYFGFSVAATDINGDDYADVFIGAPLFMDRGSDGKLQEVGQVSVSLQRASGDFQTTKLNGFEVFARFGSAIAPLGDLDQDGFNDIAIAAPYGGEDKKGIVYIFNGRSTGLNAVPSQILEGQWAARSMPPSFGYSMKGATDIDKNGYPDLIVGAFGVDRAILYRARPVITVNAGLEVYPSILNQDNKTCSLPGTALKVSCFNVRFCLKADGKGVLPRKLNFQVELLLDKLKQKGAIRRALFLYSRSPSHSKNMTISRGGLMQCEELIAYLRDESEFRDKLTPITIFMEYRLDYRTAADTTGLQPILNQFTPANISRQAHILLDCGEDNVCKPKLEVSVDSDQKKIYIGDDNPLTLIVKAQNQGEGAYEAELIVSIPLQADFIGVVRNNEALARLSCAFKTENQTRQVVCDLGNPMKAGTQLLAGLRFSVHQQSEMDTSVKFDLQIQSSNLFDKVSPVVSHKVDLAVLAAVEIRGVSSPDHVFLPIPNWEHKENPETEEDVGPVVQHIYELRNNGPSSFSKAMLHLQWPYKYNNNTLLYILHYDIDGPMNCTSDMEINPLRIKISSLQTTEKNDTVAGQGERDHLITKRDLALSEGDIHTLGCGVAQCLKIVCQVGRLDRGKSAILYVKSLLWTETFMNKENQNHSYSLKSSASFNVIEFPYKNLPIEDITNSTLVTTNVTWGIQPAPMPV
T4 chain 2: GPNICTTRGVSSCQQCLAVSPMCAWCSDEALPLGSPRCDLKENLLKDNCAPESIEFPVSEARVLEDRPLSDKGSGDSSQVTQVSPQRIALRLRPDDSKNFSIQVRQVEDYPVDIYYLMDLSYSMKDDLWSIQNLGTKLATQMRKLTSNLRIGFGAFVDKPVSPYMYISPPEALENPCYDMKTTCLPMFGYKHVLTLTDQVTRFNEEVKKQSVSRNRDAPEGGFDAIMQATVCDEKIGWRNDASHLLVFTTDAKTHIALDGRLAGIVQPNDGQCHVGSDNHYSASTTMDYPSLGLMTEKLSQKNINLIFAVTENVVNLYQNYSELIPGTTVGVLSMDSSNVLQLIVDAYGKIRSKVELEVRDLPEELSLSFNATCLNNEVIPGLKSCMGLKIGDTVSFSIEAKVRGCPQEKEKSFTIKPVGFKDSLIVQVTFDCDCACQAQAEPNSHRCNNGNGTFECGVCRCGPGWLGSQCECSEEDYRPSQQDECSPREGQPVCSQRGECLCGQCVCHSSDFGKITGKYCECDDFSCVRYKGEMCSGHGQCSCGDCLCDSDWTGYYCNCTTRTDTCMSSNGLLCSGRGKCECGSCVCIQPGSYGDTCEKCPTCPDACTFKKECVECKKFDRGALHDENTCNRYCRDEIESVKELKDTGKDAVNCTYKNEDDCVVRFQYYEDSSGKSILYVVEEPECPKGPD

IC50 (integrin αvβ8): 0.66 nM
IC50 (integrin αvβ6): 94 nM
IC50 (integrin αvβ5): > 10000 nM
IC50 (integrin α5β1): 1470 nM
IC50 (integrin αvβ3): 676 nM
Binder: cyclo(RGDL[dP][NMeK](BDPFL)GL) [Compound 9a (9-BDPFL)]
